Data: US20240100180A1

Molecular target: CLDN18.2 on lipoparticles
Assay: ELISA on CLDN18.2-lipoparticles

EC50: 0.0515 µg/mL
Substance: IMAB362 (antibody)
